# From patent publication US20100093623A1, “COMPOSITIONS AND METHODS FOR […]-LIKE RECEPTOR ACTIVITY AND USES THEREOF” (Burnham Institute for Medical Research, priority 2008, published 2010)
# T1: NLRP1 (Homo sapiens, UniProt Q9C000)
# T1 sequence (Q9C000 1-1473): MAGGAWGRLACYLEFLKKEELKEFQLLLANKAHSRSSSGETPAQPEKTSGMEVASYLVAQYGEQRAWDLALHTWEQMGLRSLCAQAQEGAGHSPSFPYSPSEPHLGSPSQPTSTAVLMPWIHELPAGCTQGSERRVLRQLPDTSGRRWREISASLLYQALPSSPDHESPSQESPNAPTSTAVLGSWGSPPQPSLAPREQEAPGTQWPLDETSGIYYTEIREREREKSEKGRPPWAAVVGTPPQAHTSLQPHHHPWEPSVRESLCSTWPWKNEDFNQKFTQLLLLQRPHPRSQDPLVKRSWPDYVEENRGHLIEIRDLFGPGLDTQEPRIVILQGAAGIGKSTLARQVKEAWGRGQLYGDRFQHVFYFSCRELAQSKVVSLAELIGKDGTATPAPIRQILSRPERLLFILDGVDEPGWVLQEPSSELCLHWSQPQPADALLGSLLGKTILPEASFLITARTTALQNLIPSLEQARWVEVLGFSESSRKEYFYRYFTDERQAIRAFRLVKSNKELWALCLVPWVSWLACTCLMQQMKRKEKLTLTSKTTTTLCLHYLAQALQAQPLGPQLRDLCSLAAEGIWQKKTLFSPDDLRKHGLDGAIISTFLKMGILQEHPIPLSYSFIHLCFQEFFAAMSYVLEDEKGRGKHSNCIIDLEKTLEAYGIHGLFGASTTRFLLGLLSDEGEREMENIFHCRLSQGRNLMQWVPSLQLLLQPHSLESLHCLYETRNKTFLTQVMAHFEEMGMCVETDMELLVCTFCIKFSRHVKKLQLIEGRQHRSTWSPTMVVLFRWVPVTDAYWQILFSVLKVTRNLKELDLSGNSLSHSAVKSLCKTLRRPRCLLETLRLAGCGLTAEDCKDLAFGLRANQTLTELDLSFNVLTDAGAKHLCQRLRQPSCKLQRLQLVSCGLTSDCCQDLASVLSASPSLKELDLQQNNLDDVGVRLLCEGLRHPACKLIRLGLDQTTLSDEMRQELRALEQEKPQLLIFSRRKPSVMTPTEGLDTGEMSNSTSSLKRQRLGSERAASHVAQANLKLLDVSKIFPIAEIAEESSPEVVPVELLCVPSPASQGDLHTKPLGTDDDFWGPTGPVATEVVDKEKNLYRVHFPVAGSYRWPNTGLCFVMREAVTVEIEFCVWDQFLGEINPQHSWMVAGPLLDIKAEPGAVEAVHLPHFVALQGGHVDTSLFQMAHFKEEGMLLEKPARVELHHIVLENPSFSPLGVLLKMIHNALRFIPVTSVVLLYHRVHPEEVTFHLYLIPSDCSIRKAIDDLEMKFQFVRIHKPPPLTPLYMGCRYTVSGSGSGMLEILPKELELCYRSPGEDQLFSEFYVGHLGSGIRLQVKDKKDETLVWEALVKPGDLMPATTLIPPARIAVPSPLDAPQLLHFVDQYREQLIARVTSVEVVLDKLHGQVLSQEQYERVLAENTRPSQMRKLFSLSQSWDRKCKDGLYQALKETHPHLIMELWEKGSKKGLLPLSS
# Target: T1, NLRP1
# Assay: FITC-ATP binding to NLRP1 by fluorescence polarization assay (FPA)
# Conditions: protein 1 μM at excess; NLRP1 0.125 μM; FITC-ATP 10 nM; MDP-LD 1 μM
molecule,measurement,value
"Bid: control protein (Bcl-2 family) (protein, UniProt P55957 1-195, looked up) BH3-interacting domain death …: MDCEVNNGSSLRDECITNLLVFGFLQSCSDNSFRRELDALGHELPVLAPQWEGYDELQTDGNRSSHSRLGRIEADSESQEDIIRNIARHLAQVGDSMDRSIPPGLVNGLALQLRNTSRSEEDRNRDLATALEQLLQAYPRDMEKEKTMLVLALLLAKKVASHTPSLLRDVFHTTVNFINQNLRTYVRSLARNGMD",reduction of FITC-ATP binding to NLRP1,negligible effects
